Assay results from patent US20250263677A1, “BIOCATALYTIC USE OF NONHEME IRON PROTEINS FOR MOLECULAR FUNCTIONALIZATION” (The Johns Hopkins University, priority 2022, published 2025).
Where a chain is given by its changes, count along the chain named. Names and notes keep the numbering of the source. Where two headings read alike, the source gives them in different places.

Legend:
[1] = Kinetic analyses of 1NF azidation with purified Sav HppD protein variants; assay type: biochemical
Method: Kinetic analyses for wild-type Sav HppD, Az1, and Az2 mediated 1NF azidation were performed in an anaerobic chamber. Ferrous ammonium sulfate (10 μL, 100 mM in water) and sodium azide (10 μL, 1 M in water) were added to a buffer solution containing purified Sav HppD protein variant (20 M, 2.4 mL) and the solution was shaken at 600 rpm for 5 minutes. A 1,2-dimethoxyethane solution of N-fluoroamide substrate 1NF was added to the solution (final concentration ranging from 0.25 mM to 15 mM in reaction solution). An aliquot of 100 μL of the reaction mixture was removed at 3, 6, 9, 12, and 15 minutes and quenched by vortexing with 300 μL 6:4 EtOAc/hexanes solution containing 0.5 mM (final concentration) internal standard 1,2,3-trimethoxybenzene. After centrifugation at 12,000 rpm for 10 mins, an aliquot (200 μL) of the organic layer was taken for GCMS analysis for product quantification.

[2] = Substrate scope of enzymatic azidation of N-fluoroamide substrates (whole E. coli cells); assay type: biochemical; conditions: across the substrates and conditions tested
Method: FIGS. 3A-3C is an illustration with reaction products generated from exemplary substrate compounds. […] Experiments were performed at analytical scale using suspensions of E. coli expressing Sav HppD variants in KPi buffer (pH 7.4) at room temperature under anaerobic conditions for 24 hours. The absolute configuration of enzymatically synthesized azidation product 1N was determined to be S via X-ray crystallography. The absolute configurations of all other azidation products were inferred by analogy. FIG. 3B summarizes a preparative scale synthesis and absolute configuration determination of product 1N. […]
In a typical experiment, ferrous ammonium sulfate (20 μL, 100 mM in water), sodium azide (20 μL, 1 M in water), and N-fluoroamide substrate (20 μL, 1.5 M in DME) were added to E. coli harboring non-heme iron enzyme variant (400 μL, adjusted to the appropriate OD600) in a 2 mL screw top GC vial in an anaerobic chamber. […] An aliquot (200-300 μL) of the organic layer was used for product quantification via GCMS and enantioselectivity via chiral HPLC or chiral GC. The total turnover numbers (TTNs) reported are calculated with respect to non-heme iron enzymes expressed in E. coli and represent the total number of turnovers obtained from the catalyst under the stated reaction conditions. […]

[3] = 1NF azidation with Sav HppD variants from directed evolution (whole E. coli cells); assay type: biochemical; conditions: OD600=10, 10 mM 1NF, 25 mM NaN3, 2.5 mM Fe2+; for TTN (total turnover): KPi pH 7.4, anaerobic, 24 hours
Method: FIGS. 9A-9C is a computational model of the Sav HppD active site, a reaction scheme, and a plot of total turnovers for various Sav HppD variants. […] The computational model was generated from protein database entry 1T47. FIG. 9B provides the azidation reaction scheme for the reaction screened with a high-throughput screening platform. FIG. 9C provides representative variants identified during the directed evolution of Sav HppD. Experiments were performed at analytical scale using suspensions of E. coli expressing Sav HppD variants (OD600=10), 10 mM substrate 1NF, 25 mM NaN3, 2.5 mM Fe^2+ in KPi buffer (pH 7.4) at room temperature under anaerobic conditions for 24 hours.
In a typical experiment, ferrous ammonium sulfate (20 μL, 100 mM in water), sodium azide (20 μL, 1 M in water), and N-fluoroamide substrate (20 μL, 1.5 M in DME) were added to E. coli harboring non-heme iron enzyme variant (400 μL, adjusted to the appropriate OD600) in a 2 mL screw top GC vial in an anaerobic chamber. The vial was capped and shaken at 680 rpm at room temperature for 24 hours. At the end of the reaction, the vial was opened and the reaction was quenched with 6 mL of a hexanes/ethylacetate solution (4:6 v/v) of internal standard 1,2,3-trimethoxybenzene (0.5 mM final concentration). The reaction mixture was transferred to a 15 mL centrifuge tube, vortexed (10 seconds, 3 times), then centrifuged (10,500×g, 5 min) to completely separate the organic and aqueous layers. An aliquot (200-300 μL) of the organic layer was used for product quantification via GCMS and enantioselectivity via chiral HPLC or chiral GC. The total turnover numbers (TTNs) reported are calculated with respect to non-heme iron enzymes expressed in E. coli and represent the total number of turnovers obtained from the catalyst under the stated reaction conditions.
A high-throughput screening (HTS) platform based on copper-catalyzed azide-alkyne cycloaddition (CuAAC) was utilized for Sav HppD variants, and provided reliable quantification of enzymatic azidation products with a coefficient of variation of 9% and a detection limit of 4 μM. With this HTS platform, more than 5,000 clones generated through error-prone PCR or site-saturation mutagenesis were evaluated.

[4] = Azidation reaction condition optimization with Sav HppD Az1 and Az2 (whole E. coli cells); assay type: biochemical
[5] = assay type: biochemical, E. coli
Method: The reactions were performed by adding ferrous ammonium sulfate (10 μL, 100 mM in water), sodium azide (10 μL, 1 M in water), and N-fluoroamide substrate 1NF (10 μL, 400 mM in DME) to E. coli harboring non-heme iron enzymes (400 μL, adjusted to OD600=40) in a 2 mL screw top GC vial. The vial was capped and shaken at 680 rpm at room temperature for 24 hours. At the end of the reaction, the vial was opened and the reaction was quenched with 0.8 mL of a hexanes/ethylacetate solution (4:6 v/v) of internal standard 1,2,3-trimethoxybenzene (0.5 mM final concentration). The reaction mixture was transferred to a 2 mL microcentrifuge tube, vortexed (10 seconds, 3 times), then centrifuged (14,000×g, 5 min) to completely separate the organic and aqueous layers. An aliquot (200-300 μL) of the organic layer was used for product quantification via GCMS and enantioselectivity via chiral HPLC or chiral GC.

[6] = 1NF (10 μL, 800 mM), OD600 = 10
[7] = 1NF (10 μL, 1.5M), Fe^2+ (20 μL, 100 mM), NaN3 (40 μL, 1M), OD600 = 10
[8] = 1NF (20 μL, 1.5M), Fe^2+ (20 μL, 100 mM), NaN3 (40 μL, 1M), OD600 = 10
[9] = whole E. coli cells OD600=40, 1NF, NaN3, Fe2+, 24 hours
[10] = 1NF (10 μL, 400 mM), Fe^2+ (10 μL, 100 mM), NaN3 (10 μL, 1M), OD600 = 10
[11] = 1NF (20 μL, 1.5M), Fe^2+ (20 μL, 100 mM), NaN3 (40 μL, 1M), OD600 = 40

B1: HppD Az1: sextuple mutant Sav HppD V189A F216A P243A N245Q Q255A L367I, SEQ ID NO: 2 (protein)
chain: MTQTTHHTPDTARQADPFPVKGMDAVVFAVGNAKQAAHYYSTAFGMQLVAYSGPENGSRETASYVLTNGSARFVLTSVIKPATPWGHFLADHVAEHGDGVVDLAIEVPDARAAHAYAIEHGARSVAEPYELKDEHGTVVLAAIATYGKTRHTLVDRTGYDGPYLPGYVAAAPIVEPPAHRTFQAIDHCAGNVELGRMNEWVGFYNKVMGFTNMKEAVGDDIATEYSALMSKVVADGTLKVKFAIQEPALAKKKSAIDEYLEFYGGAGVQHIALNTGDIVETVRTMRAAGVQFLDTPDSYYDTLGEWVGDTRVPVDTLRELKILADRDEDGYLLQIFTKPVQDRPTVFFEIIERHGSMGFGKGNFKAIFEAIEREQEKRGNL
With B1 the “improvement in catalytic efficiency (kcat/KM) compared to the wild-type enzyme” value [1] was “around 2 fold”, the “activity and enantioselectivity” value [2] was “higher activity but lower enantioselectivity than Sav HppD Az2” and the “1N/1A (ratio of 1N to 1A among products)” value [3] was 15.5. The “1N/1F (ratio of 1N to 1F among products)” value [3] was 53.8, the “TTN (total turnover)” value [3] was 1340 ± 40 and the “TTN (total turnover)” value ([3]; listed as Sav HppD Az1) was 1340. For the same molecule, the 1/1A [4, 6] was 18.0, the 1/1F [4, 6] was 52.0 and the TTN [4, 6] was 2480 ± 30. The 1/1A [4, 7] was 19.5, the 1/1F [4, 7] was 47.0 and the TTN [4, 7] was 3100 ± 60. It also gave a 1/1A [4, 8] of 20.0, a 1/1F [4, 8] of 55.0 and a TTN [4, 8] of 4290 ± 50. For the same molecule, the 1/1A ([4]; NaN3 (20 μL, 1M)) was 14.0, the 1/1F ([4]; NaN3 (20 μL, 1M)) was 52.0 and the TTN ([4]; NaN3 (20 μL, 1M)) was 1550 ± 40. It also gave a 1/1A ([4]; OD600 = 10) of 16.4, a 1/1F ([4]; OD600 = 10) of 48.0 and a TTN ([4]; OD600 = 10) of 1940 ± 20. For the same molecule, the 1/1A ([4]; initial conditions) was 15.5, the 1/1F ([4]; initial conditions) was 54.0 and the TTN ([4]; initial conditions) was 1340 ± 40.

B2: Sav HppD: (4-hydroxyphenyl)pyruvate dioxygenase from Streptomyces avermitilis, SEQ ID NO: 1, Uniprot Q53586 (protein, listed as Streptomyces sp.)
chain: B1 chain with A189V, A216F, A243P, Q245N, A255Q, I367L
In the case of B2, the “1N/1A (ratio of 1N to 1A among products)” value [3] is reported as 3.0, the “1N/1F (ratio of 1N to 1F among products)” value [3] is reported as 9.0 and the “TTN (total turnover)” value [3] is reported as 250 ± 10. For the same molecule, the “1A % (yield of 1A)” value ([5]; no azide addition) was 6.5%, the “1F % (yield of 1F)” value ([5]; no azide addition) was 2.2% and the “1A % (yield of 1A)” value [5, 9] was 10.0%. For the same molecule, the “1F % (yield of 1F)” value [5, 9] was 3.7% and the “1N % (yield of 1N)” value ([5]; whole E. coli cells OD600=40, 1NF, NaN3, Fe2+, room temperature, 24 hours) was 33.0 ± 2.0%.

B3: HppD Az2: septuple mutant Sav HppD V189A N191A S230L P243G N245F Q255P L367I, SEQ ID NO: 3 (protein)
chain: B1 chain with N191A, A216F, S230L, A243G, Q245F, A255P
With B3 the “improvement in catalytic efficiency (kcat/KM) compared to the wild-type enzyme” value [1] was “around 2 fold”, the “1N/1A (ratio of 1N to 1A among products)” value [3] was 19.3 and the “1N/1F (ratio of 1N to 1F among products)” value [3] was 30.6. For the same molecule, the “TTN (total turnover)” value [3] was 490 ± 20, the “TTN (total turnover)” value ([3]; listed as Sav HppD Az2) was 490 and the 1/1A [4, 10] was 19.3. It also gave a 1/1F [4, 10] of 30.6, a TTN [4, 10] of 490 ± 20 and a 1/1A [4, 8] of 7.0. The 1/1F [4, 8] was 18.0, the TTN [4, 8] was 260 ± 30 and the 1/1A [4, 11] was 21.0. It also gave a 1/1F [4, 11] of 34.0 and a TTN [4, 11] of 1820 ± 50.
